± gives the half width of the 95% confidence interval.
Assays:
[1] = folding stability dG unfold (combined trypsin and chymotrypsin); higher = more stable
Procedure, shortened: (§1)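 Digests were run with trypsin and chymotrypsin at 11 concentrations in threefold dilutions, plus a no-protease condition, on designed mini-proteins in a PA-tagged cDNA display construct. The mini-proteins were under 80 residues, had no cysteine, and were kept only when AlphaFold2 dimer inter-PAE was above 15. After sequencing, Bayesian fitting of the counts gave K50, from which unfolding free energy was derived against a sequence-predicted unfolded-state K50 and a shared folded-state K50, per protease or combined.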

[2] = folding stability dG unfold from chymotrypsin proteolysis; higher = more stable
Procedure, shortened: as §1

[3] = folding stability dG unfold from trypsin proteolysis; higher = more stable
Procedure, shortened: as §1

| Sequence | folding stability dG unfold [1] [kcal/mol] | folding stability dG unfold [2] [kcal/mol] | folding stability dG unfold [3] [kcal/mol] |
| --- | --- | --- | --- |
| SEETLRILIRDPATGELREIEVRAGETVTVTFPDGSTVTLRITVVAAPPPPPKTVTLDPNETVEEGETVLSA [r9_467_TrROS_Hall] | 2.1 ± 0.092 | 1.9 ± 0.038 | 2.24 ± 0.084 |
| SEEVEIEIRIRVEVDSLEEARALAEALEELGFEVEVKVVERDGKLVVEVTIRIRVPAPPPPPLSEEELKASA [r9_863_TrROS_Hall] | 2.17 ± 0.19 | 1.55 ± 0.14 | 2.49 ± 0.11 |
| SEFELKIEEEEDPATGVLRVTVTFNTSLEDAKEKLKELLKESGLNAVIKSVEEKKVGPEVTITFEIEIPPSA [r9_164_JUSTAS] | 3.05 ± 0.057 | 3.27 ± 0.052 | 2.71 ± 0.065 |
| SEKIKELIKKLAEELNLKIVKIEKKEDGKIIIEFENGIKIEIEIDPEKKNKIKIKIEKTKNGKLKITIEPSA [r9_809_TrROS_Hall] | 2.24 ± 0.12 | 2.65 ± 0.14 | 1.67 ± 0.11 |
| SEKIVIEFPNPEEATVELIKSIIKPYLEPGEKVKIKVFSKDGKPLFEKELEFNEVEEVPKEKDYLIVIEKSA [r9_264_TrMRF] | 1.14 ± 0.21 | 1.3 ± 0.1 | 0.97 ± 0.076 |
| SEKPLVTLELELVVETEEQARAAVEALLAALPEEEIVDIRVEVEEVDVFENGELVGRRRRVRVTIVVRRPSA [r9_605_TrROS_Hall] | 4.41 ± 0.25 | 4.06 ± 0.26 | 4.31 ± 0.24 |
| SEKTVLSSSTSTSPTSITTTTTVKLPDGSLITTTTTYSSVTAAPTPAPGGTLVPTYSLPTTTTTTTLPPASA [r9_240_JUSTAS] | 0.63 ± 0.11 | 0.309 ± 0.13 | 0.845 ± 0.025 |
| SEMSVEEILKKIAEELLKKNPNKEVTKEIEIEFEKPDPEGKRLLKEKVKATIKVTPDKIEILSESREILLSA [r9_361_JUSTAS] | 1.31 ± 0.18 | 1.07 ± 0.054 | 1.52 ± 0.066 |
| SEPRYHVEIRLPVLLVVPPELLEPDPERDSYRLPEDDLPVHPDAVIPREVTFSGPMTAEEVVRRTLALLSSA [r9_165_TrMRF] | 1.04 ± 0.085 | 1.38 ± 0.13 | 0.455 ± 0.11 |
| SEPWELVEERELPPNAVITFPNGEKLEIDPEKARVRVWRRPDSVRVLVVLKDGTVLEFEFYAPPRVTDDDSA [r9_348_TrMRF] | 2.69 ± 0.1 | 2.58 ± 0.033 | 2.62 ± 0.074 |
| SERLKLKITIKNANGETYEVEIEFDLETNELTIKVKPVPALPPVTEKRVVKKDGKLVEETRTVLLSEEDLSA [r9_587_TrROS_Hall] | 1.74 ± 0.38 | 1.83 ± 0.1 | 1.02 ± 0.16 |
| SETETITVEVTMPAEELANMSAEELAARLREAFPDLKITSISITVEEVEDPETGERLVRVTVTITVERVPSA [r9_1189_TrROS_Hall] | 4.31 ± 0.15 | 3.4 ± 0.068 | 4.28 ± 0.11 |
| SETITLEIELPDGSKLTIEIPVEKIPGVDEYVVTVKITEYLPNGKPRSREFTFLAKSPEEAVEIALLAAGSA [r9_337_TrMRF] | 5.57 ± 0.21 | 5.57 ± 0.16 | 4.7 ± 0.24 |
| SETYKVTVLAEVRIYSRSPDGTWKPIGVFPVEATVEYPAEYREEAERKAVEKVEEEVRKFAESHGVVVEASA [r9_356_TrMRF] | 1.91 ± 0.16 | 2.31 ± 0.13 | 1.57 ± 0.043 |
| SEVKLEVEEEEDGTLRVRLEVKLTREDGREVTRELELELTIELPPVEFETEEERRAALERLLEELEKLLESA [r9_790_TrROS_Hall] | 3.52 ± 0.13 | 3.89 ± 0.18 | 3.18 ± 0.075 |
| SEYSRIEFEDYTVLVVKKTLPNGKPLYLVRLYRKEDPKVDPVEVDSPEEAEEAVKELLKKHLPGEEVEKESA [r9_749_TrMRF] | 3.08 ± 0.15 | 3.3 ± 0.033 | 2.3 ± 0.11 |
| SFEIEILDVDPDGWIVITIRYPSPDGKPLTPEEMEEIAEEIALELFPQFPDFKVTIEHDPESGTITIVIRSA [r9_485_TrROS] | 4.15 ± 0.43 | 3.59 ± 0.3 | 4.25 ± 0.35 |
| SFRIMASYDPDYGTITVYVQFQDPDNGEPIPAEEIAKEIAEQFPGAKIDDIEPNPDGWFKIEIKVPPGAFSA [r9_87_TrROS] | 2.46 ± 0.19 | 2.55 ± 0.044 | 2.19 ± 0.077 |
| SGEFKPIATIDAKDGKPEAIIDSVKELLPDSGPVLVVLDLPDGPPKVNVIDPSTGKVREFVPGGNITIVPSA [r9_853_TrMRF] | 1.03 ± 0.056 | 1.39 ± 0.021 | 0.355 ± 0.037 |
| SGEIIGEQTFPVEDGGKVPVKIYKNPGNLYAEVFNDDDKPIQEQEIPPDDDLEDIENIKLPPGAWVRIYWSA [r9_215_TrROS] | 0.433 ± 0.3 | 0.368 ± 0.39 | 0.205 ± 0.14 |
| SGISNEEIKKILEEIAKEYPGLKIEIKPGTEPSVAKGPKAVVTLTRKPGYLEITITFPETGETTTIPIPPSA [r9_1062_JUSTAS] | 2.64 ± 0.043 | 2.721 ± 0.02 | 2.51 ± 0.072 |

| Sequence | folding stability dG unfold [1] [kcal/mol] | folding stability dG unfold [2] [kcal/mol] | folding stability dG unfold [3] [kcal/mol] |
| --- | --- | --- | --- |
| SGKVKVKVEIPIPFRPPDGKWMMMNIWVEAEVPVTPEDLNNGKPRIRPEALDEAKDKVREWMRDIFGEPISA [r9_629_TrROS] | 1.45 ± 0.13 | 1.74 ± 0.11 | 1.03 ± 0.052 |
| SGLAPGEVVPEKFEREITDPETGKKYKVEVTTEIAPENPVRRVTVTTTPPDGTTTTTEEVIPPGEEYTLESA [r9_88_JUSTAS] | 0.468 ± 0.077 | 0.867 ± 0.092 | -0.889 ± 0.27 |
| SGLLEKFLKEAEEWIKKLGLKVKPGEKVEIPIPFENNLIAKIEFYPGEKIIKVVLIGENKPVEYKFKIEKSA [r9_426_TrMRF] | 1.88 ± 0.45 | 2.32 ± 0.17 | 1.53 ± 0.16 |
| SGLVEAIAKALGAESVTPHPDGTFSLRLKDGSYLKIKVEVLEVRERPDGSPEFIVKIEIEVFEGGKPEDESA [r9_648_TrMRF] | > 6 | 5.94 ± 0.065 | 4.56 ± 0.14 |
| SGMIDVDLDYTTEDGRPVKVSASYDPATGVLTFKVPDNDDVIIATVTEVTTEDESVTVTLNVTRYSKELLSA [r9_587_JUSTAS] | 2.09 ± 0.14 | 2.54 ± 0.066 | 0.957 ± 0.072 |
| SGMMRTIVLKIPIEEARKLLGDPNKPVSEEELKALVEKLAKEKGLDVEEIKVEKLPDGTYVVTVLVPDLGSA [r9_52_JUSTAS] | 3.81 ± 0.099 | 4.12 ± 0.076 | 3.06 ± 0.12 |
| SGMPPVSFANLELVAVSPDGTVTVVRAELTGPDGERYVWTGSLSELLKRLEEEDLTLDNFKEGGLIVAVDSA [r9_1078_TrMRF] | 3.44 ± 0.041 | 3.75 ± 0.039 | 2.77 ± 0.06 |
| SGMSMAKDAKPIYIEYRDPNGKSYRVTEVKVNEDGTLTITIEYPDSIKTYTLPPNANYPLSSSLILSTVESA [r9_993_JUSTAS] | 1.45 ± 0.14 | 1.43 ± 0.13 | 1.4 ± 0.076 |
| SGMVEVKVTVPPGPATLTATPSDGSTYSKSIPANSEVTFTFPVPASLPSSTTITFTLTFPDTGTTTTTSVSA [r9_275_JUSTAS] | 1.28 ± 0.26 | 1.26 ± 0.25 | 1.28 ± 0.051 |
| SGPALEILRAASEEEGVPVLAEVVPDADGNPVIPAVVWSPEDIEAGELPGEVKEAPITVDGKTYRVVLFASA [r9_489_TrMRF] | -0.0573 ± 0.086 | -0.0942 ± 0.18 | -0.224 ± 0.11 |
| SGPFQFFVKIEYKGKNGKTQERELPINMPPGDFDKFIEEILDDPNLEGADDVEIDVYMAGTGRPQEIEIPSA [r9_97_TrROS] | 1.07 ± 0.092 | 1.22 ± 0.11 | 0.678 ± 0.061 |
| SGPTVTYKVPYTRDVAVPTVKIGAKVTTTTTVTKLPNGTLASTSTSADVELTLNLPPDTPLSPNYLSTGGSA [r9_277_JUSTAS] | -0.0833 ± 0.2 | -0.175 ± 0.38 | -0.0817 ± 0.21 |
| SGSLSIEFSSTEPSSPGSITLSKLFPEPEADRATHTIKLPNSTIELEFDSAEDLIKNVEKLLKELGNPGKSA [r9_258_JUSTAS] | 0.115 ± 0.12 | -0.0786 ± 0.18 | 0.297 ± 0.058 |
| SGSPDELEVVESEETVNIPPEELEAKYGIKVPENSTVVIKTKTLKPPSGNDIVEPEIKIYDPVTNEWIELSA [r9_349_JUSTAS] | -0.47 ± 0.25 | -0.474 ± 0.27 | -0.537 ± 0.13 |
| SGTRTVTVTGAVLSRLPDGTLVTDPGEAPVTVPVPPPKPRIEVPPELREKLREAAEKLGLELTEEDIETASA [r9_487_TrMRF] | -0.365 ± 0.26 | -0.896 ± 0.9 | -0.208 ± 0.36 |
| SGVQLEWKYDPEDNKREIKISIFFPADDPEKKKQFAKVIAKEIENMFQEQGWKPKKIDIEVMRMPPGQPLSA [r9_117_TrROS] | 1.02 ± 0.067 | 1.2 ± 0.063 | 0.889 ± 0.049 |
| SGYLDAPVKDIKVEKKPIPTSGKVTYTFEAETEDGKPVRVEYNPVTGKIVFGLPPGFKIKPGKPAEVVVGSA [r9_509_TrMRF] | 0.718 ± 0.13 | 0.885 ± 0.2 | 0.16 ± 0.081 |
| SHMVTVTIYKNGVKVKETEIPLEEVEKMPEEEIIEFAAEIAKKNPGVNYTFTITRPSGPSTVSIDGPEKLKS [r1_477_JUSTAS] | 1.28 ± 0.21 | 1.55 ± 0.14 | 0.762 ± 0.12 |
| SHTTTEPATGVTVEVVPSPDGTHVVTVKKPGGEVVKTVTVPSGPRPPGSTTPLTVALTDLPPDVETSVDLSS [r1_263_JUSTAS] | 0.232 ± 0.2 | 0.141 ± 0.077 | 0.416 ± 0.067 |
| SIEVEKTPDGKFEIENDNGWKVEIEVFPGMIEIKIKPVKVYVPDGKWFETPEEAEKMQEKNGVPITEDDLSA [r9_660_TrROS] | 0.743 ± 0.19 | 1.08 ± 0.071 | 0.615 ± 0.12 |
| SIIIQFDNPEEAKENAEDFINEFQDEFGPGQKIPITIHDPGGDPATFPIEIEPPPPPVEYDEENGKLKPDSA [r9_596_TrROS] | 1.51 ± 0.43 | 1.7 ± 0.17 | 1.13 ± 0.18 |
